Test results published in the supplement of paper PMC11136658.

Test system: peptide library, one residue held at a place counted from the Y acceptor
Assay: relative phosphorylation of the sub-library (ratio to the mean residue at this position); higher = residue favoured
Method in brief: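 Within 384-well plates, purified recombinant kinases phosphorylated biotinylated Tyr-centred peptide library mixtures over 90 min using 50 μM ATP spiked with γ-32P-ATP; each mixture fixed one residue at one position from −5 to +5. Streptavidin membrane capture, rinsing, phosphorimaging and ImageQuant gave the intensities. These were normalized per position to the sum of the 18 randomized residues (16 for the Ser/Thr-free library) and multiplied by that number.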

ZAP70, construct: Full length, human, sequence (P43403 whole entry, looked up): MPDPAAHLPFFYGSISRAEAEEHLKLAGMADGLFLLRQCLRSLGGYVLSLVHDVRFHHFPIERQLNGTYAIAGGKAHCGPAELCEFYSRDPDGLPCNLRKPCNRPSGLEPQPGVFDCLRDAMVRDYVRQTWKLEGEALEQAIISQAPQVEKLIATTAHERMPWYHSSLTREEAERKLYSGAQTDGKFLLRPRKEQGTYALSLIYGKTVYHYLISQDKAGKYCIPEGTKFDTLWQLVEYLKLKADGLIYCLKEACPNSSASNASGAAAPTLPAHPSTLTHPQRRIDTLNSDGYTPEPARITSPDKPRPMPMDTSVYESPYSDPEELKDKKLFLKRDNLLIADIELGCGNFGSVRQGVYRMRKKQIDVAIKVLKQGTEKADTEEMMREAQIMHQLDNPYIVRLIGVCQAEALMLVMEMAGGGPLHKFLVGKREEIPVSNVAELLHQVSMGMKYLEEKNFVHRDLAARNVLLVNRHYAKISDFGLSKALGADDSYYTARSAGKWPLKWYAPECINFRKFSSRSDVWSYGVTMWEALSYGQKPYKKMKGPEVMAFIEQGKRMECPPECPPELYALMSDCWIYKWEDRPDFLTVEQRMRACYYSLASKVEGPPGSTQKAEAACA

ZAP70, construct: Full length, human (from UniProt P43403)
relative phosphorylation
Conditions	at +1	at +2	at +3	at +4	at +5	at -1	at -2	at -3	at -4	at -5
A fixed	1.06	0.821	0.963	0.884	1.33	0.998	0.898	0.967	1.56	1.12
D fixed	0.587	0.722	0.434	1.07	1.28	3.39	1.51	2.04	1.67	1.57
E fixed	1.29	1.08	0.275	1	1.28	1.95	2.19	2.09	2.51	1.4
F fixed	1.5	1.2	0.924	0.707	0.618	0.579	0.492	0.617	0.494	0.863
G fixed	0.481	0.544	0.842	1.14	1.63	0.746	1.56	1.1	1.43	1.58
H fixed	1.33	0.773	0.947	1.21	0.872	0.946	1	0.848	0.854	1.15
I fixed	0.769	0.724	1.11	0.548	0.423	0.956	0.413	0.588	0.561	0.684
K fixed	0.553	0.811	0.389	1.01	0.858	0.496	0.629	0.638	0.609	0.847
L fixed	0.761	0.949	0.956	0.764	0.55	0.796	0.465	0.559	0.571	0.553
M fixed	0.97	0.827	1.98	0.997	0.83	0.671	0.633	0.54	0.618	0.947
N fixed	0.635	1.01	0.499	0.731	0.967	1.2	1.52	1.53	0.822	1.26
P fixed	0.314	0.988	2.61	1.77	2.28	0.594	0.845	1.06	1.76	1.08
Q fixed	1.4	1.14	0.626	1.28	0.936	0.958	1.46	1.01	1.03	0.886
R fixed	0.448	0.77	0.432	1	0.522	0.4	0.576	0.713	0.684	0.814
S fixed	0.981	0.862	1.09	1.05	1.15	0.899	1.39	1.36	0.877	0.847
T fixed	1.31	1.08	0.782	0.955	1.25	1.04	1.26	0.966	0.661	0.925
V fixed	1.56	0.99	1.55	0.907	0.617	0.8	0.693	0.666	0.676	0.837
W fixed	2.05	2.7	1.58	0.97	0.62	0.573	0.464	0.713	0.625	0.625
pThr fixed	1.75	2.19	0.364	0.792	1.55	6.59	4.22	4.5	2.58	2.92
pTyr fixed	14.8	2.62	0.501	0.573	1.09	16.3	3.62	4.31	3.03	2.17
